According to patent US20080072349A1 (PIONEER HI BRED INTERNATIONAL, published 2008):
Numbering of substitutions follows the chain as printed.

B1: Rubisco Activase derived polypeptide 183H12 (enzyme)
chain: MVKEDKQTDGDRWRGLAYDTSDDQQDITRGKGMVDSVFQAPMGTGTHHAVLSSYEYVSQGLRQYNLDNMMDGFYIAPAFMDKLVVHITKNFLTLPNIKVPLILGIWGGKGQGKSFQCELVMAKMGINPIMMSAGELESGNAGEPAKLIRQRYREAADLIKKGKMCCLFINDLDAGAGRMGGTTQYTVNNQMVNATLMNIADNPTNVQLPGMYNKEENARVPIICTGNDFSTLYAPLIRDGRMEKFYWAPTREDRIGVCKGIFRTDKIKDEDIVRLVDQFPGQSIDFFGALRARVYDDEVRKFVESLGVEKIGKRLVNSREGPPVFEQPEMTYEKLMEYGNMLVMEQENVKRVQLAETYLSQAALGDANADAIGRGTFYGKTEEKEPSKLE
B2: Rubisco Activase derived polypeptide 079H6 (enzyme)
chain: B1 chain with M42T, M131I, R274T, R293K
B3: Rubisco Activase derived polypeptide 214A4 (enzyme)
chain: B1 chain with M42T
B4: Rubisco Activase derived polypeptide 382D8 (enzyme)
chain: B1 chain with M131V, V257I, R274T, K310N
B5: Rubisco Activase derived polypeptide 383A12 (enzyme)
chain: B1 chain with F168L, V257I, K310N
B6: wild type Rubisco Activase (Arabidopsis, short form RCA1) (enzyme)
chain: B1 chain with R274T
B7: Rubisco Activase derived polypeptide 301C7 (enzyme)
chain: B1 chain with F168L, V257I, R274T, K310N
B8: Rubisco Activase derived polypeptide 301H3 (enzyme)
chain: B1 chain with V257I, K310N
B9: Rubisco Activase derived polypeptide 184B2 (enzyme)
chain: B1 chain with R274T, K310N
B10: Rubisco Activase derived polypeptide 126H4 (enzyme)
chain: B1 chain with M130R, R274T
B11: Rubisco Activase derived polypeptide 182B11 (enzyme)
chain: B1 chain with M131I, R274T

target: T1, purified deactivated Arabidopsis Rubisco (Ribulose-1,5-bisphosphate carboxylase/oxygenase) (Arabidopsis, UniProt O03042 3-479; P10795 55-180); test: cell-based or functional assay

Row | Binder | Activation of deactivated Rubisco assay, T.S 45° C./25° C. | Activation of deactivated Rubisco assay, T.S 45 min at 40° C./15 min at 25° C. | Rubisco activation under catalytic conditions assay, T.S 40° C./25° C.
1 | B1 | 52% | 54% | 77%
2 | B2 | 63% | 66% | 82%
3 | B3 | 58% | 65% | 74%
4 | B4 | 86% | 85% | 93%
5 | B5 | 92% | 88% | 97%
6 | B6 | 50% | 32% | 67%
7 | B7 | 84% | 92% | 83%
8 | B8 | 89% | 75% | 78%

target: T1, purified deactivated Arabidopsis …; test: cell-based or functional assay; remark: another data set of the same source

Row | Binder | Thermostability (%)
9 | B1 | 82%
10 | B9 | 84%
11 | B2 | 88%
12 | B3 | 92%
13 | B4 | 90%
14 | B5 | 103%
15 | B6 | 66%
16 | B7 | 98%
17 | B8 | 89%
18 | B10 | 97%
19 | B11 | 84%

target: T1, purified deactivated Arabidopsis …; test: cell-based or functional assay; remark: another data set of the same source

Row | Binder | activation state of Rubisco at 40° C. relative to reactions at 25° C.
20 | B6 | 70%
